Results on three substances are retold here after patent publication US12510548B2, “Method of determining toxicity of an immunomodulatory drug for use in humans” (The Jackson Laboratory, priority 2017, dated 2025).

Like-named read-outs stand apart in the source and are kept apart here.

One series deals with NK cells. As to conditions: cited from earlier work.
Series [1] relates to hPBMC humanized NSG mice. Conditions: mouse, in vivo. An excerpt: The clinical score in the mice was monitored by performing the signs and the grading of scores as follow: Score: 0=normal activity; 1=normal activity, piloerection, tiptoe gait; 2=hunched, reduced activity but still mobile; 3=hypomotile but mobile when prompted; 4=moribund (point of death). Mice with a clinical score of 4 were euthanized.
As in a reference by Brady et al., Clinical & Translational Immunology, 2014, the inventors performed the signs and the grading of scores as follow: Score: 0=normal activity; 1=normal activity, piloerection, tiptoe gait; 2=hunched, reduced activity but still mobile; 3=hypomotile but mobile when prompted; 4=moribund (point of death). Mice with a clinical score of 4 were euthanized.

A further series has as its system non-humanized mice. Description: Administration of antibodies to non-humanized mice, cytokine responses. As to conditions: mouse, in vivo.
In series [2] the test system is hPBMC humanized NSG mice. Conditions: mouse, in vivo. This is another data set of the same source.
Description: Rectal temperature of the mice of Examples 5 and 6 was measured before treatment and again immediately before each time-point bleed. […] Rectal temperature was measured in hPMBCs humanized mice of 10 donors injected with control PBS, OKT3, and anti-CD28. The number of mice for each group was 2-5 and data are presented as mean±SEM.
Rectal temperature of the mice was measured before treatment and again immediately before each time-point bleed. Temperature was measured by the insertion of a rectal thermocouple probe and waiting until a stable reading was obtained.
In a further series the test system is human PBMCs. Description: In vitro PBMC assay of cytokine release (drug-coated plate). Conditions: donor 213; anti-CD28 10 μg/well, OKT3 1 mg/ml; supernatant day 2. Type of series: cell-based. The method, then: Day −1: Coated the plate with drugs: dilute drug (e.g., an antibody) in PBS; leave plate open under hood.
Day 0: Process PBMCs from each donor. PBMCs were from donor 213, 309, 345, or 366. Thaw PBMCs in supplemented RPMI and wash once. Count cells and re-suspend in supplemented RPMI at 1×10^6 cells/ml. Wash coated wells twice with 200 μl PBS and then once with 200 μL supplemented RPMI. Plate 100 μl of cells in each well (for a total of 1×10^5 cells per well).
Day 2: Harvest supernatant from each well and measure the cytokine level using a BD CBA Th1/Th2 II kit.
The two methods for determining cytokine release levels after a drug treatment were compared for treatment of PBMCs from four different donors with an anti-CD28 antibody (Ancell, Cat. No. 177-824). For the in vitro assay, anti-CD28 was dosed at 10 μg/well in the 96 well plates. For the in vivo method, anti-CD28 was dosed at 1 mg/kg. Supernatants of the in vitro PBMC culture wells and serum from the mice were collected and cytokine levels were measured. Antibody OKT3 (0.5 mg/kg for the in vivo assay or 1 mg/ml for the in vitro assay) was used as a positive control and either PBS or isotype antibodies were used as negative controls in the in vivo assay or the in vitro assay, respectively. The cytokine levels determined are presented in FIGS. 14A (IFN-γ and IL-10) and 14B (IL-6 and IL-4) as mean values±standard error of the mean (SEM).

In series [3] the test system is hPBMC humanized NSG mice. Description: Human cytokine release in sera of hPBMC humanized NSG mice after drug injection (BD CBA Th1/Th2 II kit). As to conditions: mouse, in vivo. As to the method: PBMCs of nine […] different donors were used to produce humanized NSG mice for these experiments. On day 6 of hPBMC engraftment (2×10^7 PBMCs/mouse), the mice were induced for human cytokine release by i.v. injection with antibodies OKT3 (anti-CD3 mAb; BioLegend, Cat. No. 317302) or ANC28.1/5D10 (also referred to as “ANC28”, “anti-CD28 mAb,” or “anti-CD28”; Ancell, Cat. No. 177-824). PBS buffer served as a negative control. The mice were bled at 2 and 6 hours, sera were collected and analyzed for cytokine concentrations using BD Cytometric Bead Array (CBA) Human Th1/Th2 Cytokine kit II (BD, Cat. No. 551809) (See, FIGS. 5A-5F).
FIGS. 5A-5F depict multiple graphs of concentration of different cytokines (i.e., IFN-γ, IL-6, IL-2, IL-10, IL-4, and TNF, respectively) measured at 2 and 6 hours after injection of antibodies OKT3 (anti-CD3 mAb) and ANC28 (anti-CD28) into sets of humanized mice for nine (9) different donors. Mice were i.v. injected with 0.5 mg/kg OKT3 or 1 mg/kg anti-CD28, and 5 ml/kg PBS (a negative control). Mice were bled at 2 and 6 hours and circulating cytokine concentrations were measured by BD CBA Th1/Th2 II kit.
To do so, a high number of PBMCs (i.e., 5×10^7/mouse) was engrafted into the humanized NSG mice. On day 6, the mice received the drug and a cytokine release profile was determined. Here, the IFN-γ and Il-10 levels were evaluated as in the above-mentioned experiments using 2×10^7 PBMCs/mouse.
On day 6 after engraftment, the mice received the immunotherapeutic drug (mAb) and a cytokine release profile was determined in these three groups of mice. Mice were bled at 2 and 6 hours and circulating cytokine concentrations were measured by BD CBA Th1/Th2 II kit. FIGS. 10A-F depict the cytokine levels after drug injection in donor 309 humanized NSG mice engrafted with 2×10^7, 3×10^7, or 4×10^7PBMCs/mouse. FIG. 10A depicts the INFγ level for each group of mice. FIG. 10B depicts the IL-10 level for each group of mice. FIG. 10C depicts the IL-6 level for each group of mice. FIG. 10D depicts the IL-2 level for each group of mice. FIG. 10E depicts the IL-4 level for each group of mice. FIG. 10F depicts the TNF level for each group of mice.
In this study, the inventors examined different concentrations of […]® (pembrolizumab) to determine if there is dosage dependence in the CRS in humanized mice. 6-week old female NOD.Cg-Prkdc^scid Il2rg^tm1Wjl/SzJ (NSG, JAX stock number 005557) mice were irradiated with 100cGy X-ray at least 4 hours prior to human PBMCs engraftment. The PBMCs in these experiments were from donor 358. Purified/isolated human PBMCs were intravenously injected into the mice at 3×10^7 cells/mouse. Six days after PBMC engraftment, mice were iv injected with PBS (negative control), 0.5 mg/kg OKT3 (positive control), 2.5 mg/kg, 5 mg/kg, or 10 mg/kg […]®. There were 5 mice per group. These […]® dosages are in the range of dosages studied in clinical trials discussed on the U.S. prescribing information for […]®. Few adverse effect reports of severe cytokine release syndrome after […]® administration have been documented. Mice were bled at 2 and 6 hours and circulating cytokine concentrations were measured using a BD CBA Th1/Th2 II kit. As shown in FIGS. 12A-F, the level measured after injection of the positive control OKT3 was very high for each of IFN-γ, IL-10, IL-6, IL-2, IL-4, and TNF. […]

With alemtuzumab [CAMPATH 1-H], the “cytokine release in vivo” value with NK cells is “high levels of TNF, IFN-γ and IL-6”.

As for muromonab-CD3 [OKT3], the clinical score with hPBMC humanized NSG mice [1] turned out to be 1. The “cytokine responses in non-humanized mice” value in the series on non-humanized mice is recorded as “did not induce the cytokine responses”. In the series with hPBMC humanized NSG mice [2], the “body temperature (rectal)” value was “below 36 °C”. For the same substance, in the series with human PBMCs, the “IFN-γ, IL-10, IL-6, and IL-4 levels versus control isotype antibody, in vitro” value was “much higher than levels determined after dosing with the control isotype antibody”. In the series on hPBMC humanized NSG mice [3], the “cytokine levels in non-irradiated mice compared to irradiated mice” value is “consistently lower” and the “major inflammatory cytokines in treated humanized mice” value was “significant increase in major inflammatory cytokines”. Also, the “level of each of IFN-γ, IL-10, IL-6, IL-2, IL-4, and TNF” value in the series with hPBMC humanized NSG mice [3] (iv, 0.5 mg/kg) is listed as “very high”.

With pembrolizumab, the clinical score result with hPBMC humanized NSG mice [1] (5 mg/kg) and in the series with hPBMC humanized NSG mice [1] (10 mg/kg) was “the same as positive control” in each case. Also, in the series with hPBMC humanized NSG mice [3], the “cytokine levels in non-irradiated mice compared to irradiated mice” value is “consistently lower”. In addition, in the series on hPBMC humanized NSG mice [3] (iv, 2.5 mg/kg), the cytokine levels result is “within the error range of the level measured for the PBS control group”.
